Test results as given in patent publication US20070224196A1 (ELUSYS THERAPEUTICS, published 2007).

Key:
[1] = biological target: T1, human erythrocyte complement receptor 1 (CR1) (human, UniProt P17927 42-2039); experiment: erythrocyte binding assay (FIGS. 10-13)
T1 construct: whole, on cells; also called C3b receptor; CD35

[2] = biological target: T1, human erythrocyte complement receptor 1 …; experiment: erythrocyte binding assay, antibody with RBCs in solution, A405 read-out

T1 sequence (P17927 42-2039): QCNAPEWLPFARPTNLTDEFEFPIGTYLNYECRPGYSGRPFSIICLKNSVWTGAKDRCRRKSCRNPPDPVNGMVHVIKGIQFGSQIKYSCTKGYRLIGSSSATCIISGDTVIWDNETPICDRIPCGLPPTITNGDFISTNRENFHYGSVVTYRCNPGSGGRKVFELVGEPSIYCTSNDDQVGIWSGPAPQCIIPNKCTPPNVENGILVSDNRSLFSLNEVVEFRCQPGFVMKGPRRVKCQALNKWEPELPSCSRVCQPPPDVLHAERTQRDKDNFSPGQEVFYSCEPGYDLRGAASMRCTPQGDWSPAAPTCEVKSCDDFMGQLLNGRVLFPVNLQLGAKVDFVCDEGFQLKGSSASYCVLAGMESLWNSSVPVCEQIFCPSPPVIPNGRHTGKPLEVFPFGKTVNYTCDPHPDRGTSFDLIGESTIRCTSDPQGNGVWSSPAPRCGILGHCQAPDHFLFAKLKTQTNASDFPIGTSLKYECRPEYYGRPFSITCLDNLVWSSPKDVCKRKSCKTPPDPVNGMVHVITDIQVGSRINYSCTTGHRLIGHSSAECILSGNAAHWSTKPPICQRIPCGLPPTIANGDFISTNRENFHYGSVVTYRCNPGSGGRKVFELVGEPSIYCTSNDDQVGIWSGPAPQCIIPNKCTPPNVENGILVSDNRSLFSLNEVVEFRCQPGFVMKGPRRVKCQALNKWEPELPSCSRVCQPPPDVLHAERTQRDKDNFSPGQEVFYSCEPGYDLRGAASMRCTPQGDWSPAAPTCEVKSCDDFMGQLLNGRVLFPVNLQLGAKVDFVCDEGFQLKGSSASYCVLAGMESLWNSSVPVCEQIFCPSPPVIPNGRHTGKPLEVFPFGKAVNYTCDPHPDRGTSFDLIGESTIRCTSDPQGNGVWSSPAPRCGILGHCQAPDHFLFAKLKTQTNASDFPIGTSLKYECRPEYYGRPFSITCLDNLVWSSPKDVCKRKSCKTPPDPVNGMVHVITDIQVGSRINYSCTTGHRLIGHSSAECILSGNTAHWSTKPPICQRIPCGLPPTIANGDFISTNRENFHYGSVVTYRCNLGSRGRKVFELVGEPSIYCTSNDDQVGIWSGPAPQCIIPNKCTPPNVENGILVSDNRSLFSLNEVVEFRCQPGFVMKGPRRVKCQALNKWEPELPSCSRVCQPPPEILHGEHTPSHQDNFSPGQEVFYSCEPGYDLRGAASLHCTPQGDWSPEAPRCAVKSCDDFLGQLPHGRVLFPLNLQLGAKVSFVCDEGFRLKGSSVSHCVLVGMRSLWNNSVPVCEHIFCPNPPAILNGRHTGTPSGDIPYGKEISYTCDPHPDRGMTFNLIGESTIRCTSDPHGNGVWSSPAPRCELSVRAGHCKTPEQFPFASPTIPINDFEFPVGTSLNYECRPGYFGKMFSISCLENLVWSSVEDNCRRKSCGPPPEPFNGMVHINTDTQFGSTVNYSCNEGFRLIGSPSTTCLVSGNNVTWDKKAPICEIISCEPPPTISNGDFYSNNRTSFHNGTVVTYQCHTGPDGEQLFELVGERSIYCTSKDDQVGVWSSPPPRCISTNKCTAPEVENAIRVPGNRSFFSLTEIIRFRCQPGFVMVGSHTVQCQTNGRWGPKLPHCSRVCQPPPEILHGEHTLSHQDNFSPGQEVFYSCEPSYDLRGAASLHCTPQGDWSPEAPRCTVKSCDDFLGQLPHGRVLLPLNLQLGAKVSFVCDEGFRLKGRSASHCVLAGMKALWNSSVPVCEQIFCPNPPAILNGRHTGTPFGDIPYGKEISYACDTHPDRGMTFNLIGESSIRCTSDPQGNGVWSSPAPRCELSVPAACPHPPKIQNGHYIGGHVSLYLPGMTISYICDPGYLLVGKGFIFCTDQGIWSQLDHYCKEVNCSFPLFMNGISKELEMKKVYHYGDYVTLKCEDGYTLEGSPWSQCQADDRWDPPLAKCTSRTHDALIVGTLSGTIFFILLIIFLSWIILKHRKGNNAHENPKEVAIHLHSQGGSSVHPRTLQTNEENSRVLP

Binder | fold reduction of binding compared to the chimeric antibody [1] [fold] | ng of antibody at A405 0.4 [2] [ng]
E DI VH4/VL2 (antibody, V domains shown, also called E DI V4/VL2) VH: DVQLQESGPGLVKPSQTLSLTCTVSGYSITSDYAWNWIRQFPGKGLEWIGYISYSGSTSYHPSLKSRISISRDTSKNQFFLQMNSVTTEDTATYYCTTIINYDKYDWYFDVWGQGTTVTVSS VL: DIVLTQSPASLVVSVRQRATISCRASQSVRTSSYSYIHWYQQKPGQPPKLLIKYASSLESGVPARFSGSGSGTDFTLNISPVEEEDTATYYCQHSWEIPWTFGPGTTVEIK | ~10 | 30
E DI VH1/VL2 (antibody, V domains shown) VH: DVQLQESGPGLVKPSQTLSLTCTVSGYSMTSDYAWNWIRQFPGKGLEWIGYISYSGSTTYHPSVKSRITISRDTSKNQFFLQMNSVTTEDTATTYCTTIINYDKYDWYFDYWGQGTTVTVSS VL: DIVLTQSPASLVVSVRQRATISCRASQSVRTSSYSYIHWYQQKPGQPPKLLIKYASSLESGVPARFSGSGSGTDFTLNISPVEEEDTATYYCQHSWEIPWTFGPGTTVEIK | ~10 | 9
E DI VH2/VL1 44H1 (antibody, V domains shown, also called immunogenicity-reduced Ab VH2/VL1) VH: DVQLQESGPGLVKPSQTLSLTCTVSGYSMTSDYAWNWIRQFPGKGLEWIGYISYSGSTSYHPSVKSRITISRDTSKNQFFLQMNSVTTEDTATYYCTTIINYDKYDWYFDVWGQGTTVTVSS VL: DIVLTQSPASLVVSVRQRATISCRASQSVRTSSYSYIHWYQQKPGQPPKLLIYYASSLESGVPARFSGSGSGTDFTLNISPVEEEDTATYYCQHSWEIPWTFGPGTKVEIK | ~2 | 12
E DI VH3/VL1 12H10 (antibody, V domains shown, also called immunogenicity-reduced Ab VH3/VL1) VH: DVQLQESGPGLVKPSQTLSLTCTVSGYSMTSDYAWNWIRQFPGKGLEWIGYISYSGSTSYHPSLKSRISISRDTSKNQFFLQMNSVTTEDTATYYCTTIINYDKYDWYFDVWGQGTTVTVSS VL: DIVLTQSPASLVVSVRQRATISCRASQSVRTSSYSYIHWYQQKPGQPPKLLIYYASSLESGVPARFSGSGSGTDFTLNISPVEEEDTATYYCQHSWEIPWTFGPGTKVEIK | – | 4
E DI VH3/VL2 15A12 (antibody, V domains shown, also called immunogenicity-reduced Ab VH3/VL2) VH: DVQLQESGPGLVKPSQTLSLTCTVSGYSMTSDYAWNWIRQFPGKGLEWIGYISYSGSTSYHPSLKSRISISRDTSKNQFFLQMNSVTTEDTATYYCTTIINYDKYDWYFDVWGQGTTVTVSS VL: DIVLTQSPASLVVSVRQRATISCRASQSVRTSSYSYIHWYQQKPGQPPKLLIKYASSLESGVPARFSGSGSGTDFTLNISPVEEEDTATYYCQHSWEIPWTFGPGTTVEIK | ~10 | –
E DI VH5/VL1 (antibody, V domains shown, also called immunogenicity-reduced Ab VH5/VL1) VH: DVQLQESGPGLVKPSQTLSLTCTVTGYSITSDYAWNWIRQFPGKGLEWMGYISYSGSTSYHPSLKSRISISRDTSKNQFFLQMNSVTTEDTATYYCTTIINYDKYDWYFDVWGQGTTVTVSS VL: DIVLTQSPASLVVSVRQRATISCRASQSVRTSSYSYIHWYQQKPGQPPKLLIYYASSLESGVPARFSGSGSGTDFTLNISPVEEEDTATYYCQHSWEIPWTFGPGTKVEIK | – | 2
